This note sets out measurements from patent US20040044182A1 (published 2004).

The assay concerns the target T1, β2m (12 kDa non-polymorphic light chain) (human, UniProt P61769 21-119).
T1 construct: No recombinant β2m was added; It came from the human HEK293 cells and co-purified under native conditions; also called beta-2-microglobulin
Briefly: immunoblot of the purified protein with anti-β2m antibody (co-purification under native conditions). The procedure: Human leukocyte antigens are heterodimeric molecules comprised of glycosylated heavy chains non-covalently associated with a 12 kDa non-polymorphic light chain called β2m. PurifiedrsHLA-G1 (10 to 100 ng) and rsHLA-G2 (10 to 1000 ng) were separated on 15% SDS-PAGE, transferred to nitrocellulose membranes and immuno-detected with anti-Flag M1 antibody or anti-β2m, as shown in FIG. 6. Only rsHLA-G1 was positive for β2m. […] To produce the immunoblot of FIG. 6, purified recombinant sHLA-G1 (10-100 ng) and purified recombinant sHLA-G2 (10-1000 ng) were separated using 15% PAGE-SDS and electrotransferred to nitrocellulose membranes. One blot was detected with anti-Flag-M1 antibody and the other with a mouse anti-β2m. This experiment provides evidence that sBLA-G2 is produced as free alpha chains, while sHLA-G1 is bound to β2m.
For orientation: In western blotting, separated proteins are transferred to a membrane and probed.

T1 sequence (P61769 21-119 limits assumed): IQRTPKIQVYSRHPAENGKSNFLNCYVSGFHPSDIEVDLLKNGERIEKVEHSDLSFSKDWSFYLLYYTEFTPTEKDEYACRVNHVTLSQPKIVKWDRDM

B1: recombinant soluble HLA-G2 (other)
MHC heavy: APLADYKDDDDKLAGSHSMRYFSAAVSRPGRGEPRFIAMGYVDDTQFVRFDSDSACPRMEPRAPWVEQEGPEYWEEETRNTKAHAQTDRMNLQTLRGYYNQSEANPPKTHVTHHPVFDYEATLRCWALGFYPAEIILTWQRDGEDQTQDVELVETRPAGDGTFQKWAAVVVPSGEEQRYTCHVQHEGLPEPLMLRWSKEGDGGIMSVRESRSLSEDL
modifications: glycosylated
notes: Secreted from HEK293 cells; The first amino acid of the α3 domain is asparagine, not aspartic acid as in sHLA-G1; Produced as free alpha chains; also called rsHLA-G2; sHLA-G2
B1: the binding result is “no binding (tested: up to 1 µg)”.
